This passage reports Kd results from publication PMC9413441.

The target of the experiment is SNAP-Protein G. The experiment in a line: titration on hydrogel beads, read by flow cytometry of the beads; SNAP-Protein G covalently immobilised on PHD beads (20 um, 50 uM BG); titration series of fluorescently labelled mouse IgG2b at room temperature with rolling for the indicated times, then washed; mean of triplicates fitted to fluorescence = (fluorescencemax x [IgG])/(KD + [IgG]). (Flow cytometry measures light scatter and fluorescence of single cells or particles in a stream.)

Broadly, the Kd is the free concentration of one partner at which half of the binding sites on the other are occupied at equilibrium, for simple one-to-one binding. On to “fluorescently labeled mouse IgG2b (antibody)”, for which the Kd was 0.0301 µM.
